Measurements: publication PMC2722910

Tested on: CC(C)C[C@H](NC(=O)[C@H](CO)NC(=O)[C@H](C)NC(=O)[C@H](CCCNC(=N)N)NC(=O)[C@H](CCCNC(=N)N)NC(=O)[C@@H](N)CC(C)C)C(=O)NCC(=O)O
Experiment: purified protein
Conditions: Mg2+, ATP

Work on “cAMP-dependent kinase (PKA) catalytic subunit (Homo sapiens)” yielded a kcat of 8.5 ± 0.5 s⁻¹.
